Test results: patent US20240317841A1

Columns and labels:
[1] = molecular target: HA from an H1N1 Swine Eurasian avian-like (EA) strain, A/Swine/Jiangsu/J004/2018 (influenza A virus (H1N1, A/Swine/Jiangsu/J004/2018)); assay: flow cytometry, HA on mammalian cells; mock 4.41
[2] = molecular target: HA from an H1N1 Swine Eurasian avian-like (EA) strain, A/Swine/Jiangsu/J004/2018 (influenza A virus (H1N1, A/Swine/Jiangsu/J004/2018)); assay: flow cytometry, HA on mammalian cells; mock 7.62 [Cont'd]
[3] = molecular target: HA from an H1N1 Swine Eurasian avian-like (EA) strain, A/Swine/Jiangsu/J004/2018 (influenza A virus (H1N1, A/Swine/Jiangsu/J004/2018)); assay: flow cytometry, HA on mammalian cells; mock 3.31 [Cont'd]
H17 (Influenza A virus) [4] = assay: FACS, HA on mammalian cells; 2nd only 4.1
H8 (Influenza A virus) [5] = assay: FACS, HA on mammalian cells; 2nd only 7.9
H12 (Influenza A virus) [6] = assay: FACS, HA on mammalian cells; 2nd only 9.7
H4 (Influenza A virus) [7] = assay: FACS, HA on mammalian cells; 2nd only 11
H16 (Influenza A virus) [8] = assay: FACS, HA on mammalian cells; 2nd only 6.9
H14 (Influenza A virus) [9] = assay: FACS, HA on mammalian cells; 2nd only 12
H13 (Influenza A virus) [10] = assay: FACS, HA on mammalian cells; 2nd only 12
H15 (Influenza A virus) [11] = assay: FACS, HA on mammalian cells; 2nd only 12
[12] = molecular target: H1-SC (Influenza A virus); assay: FACS, HA on mammalian cells; 2nd only 7.5
H11 (Influenza A virus) [13] = assay: flow cytometry, HA on mammalian cells; mock cells 0.96
H12 (Influenza A virus) [14] = assay: as above
H8 (Influenza A virus) [15] = assay: as above
H10 (Influenza A virus) [16] = assay: as above
H13 (Influenza A virus) [17] = assay: as above
H4 (Influenza A virus) [18] = assay: as above
H11 (Influenza A virus) [19] = assay: FACS, HA on mammalian cells; 2nd only 8.1
[20] = molecular target: H5 hemagglutinin (influenza A virus); assay: BLI, HA-5; printed as kdis
[21] = molecular target: H1-CAL (Influenza A virus); assay: FACS, HA on mammalian cells; 2nd only 7.4
[22] = molecular target: H7 hemagglutinin (influenza A virus); assay: BLI, HA-7
H18 (Influenza A virus) [23] = assay: FACS, HA on mammalian cells; 2nd only 5.5
[24] = molecular target: HA from an H1N1 Swine Eurasian avian-like (EA) strain, A/Swine/Jiangsu/J004/2018 (influenza A virus (H1N1, A/Swine/Jiangsu/J004/2018)); assay: flow cytometry, HA on mammalian cells; mock 4.30
[25] = molecular target: H7 hemagglutinin (influenza A virus); assay: BLI, HA-7; printed as kdis
H14 (Influenza A virus) [26] = assay: flow cytometry, HA on mammalian cells; mock cells 0.96 [cont'd]
H16 (Influenza A virus) [27] = assay: as above
H17 (Influenza A virus) [28] = assay: as above
H18 (Influenza A virus) [29] = assay: as above
H15 (Influenza A virus) [30] = assay: as above
[31] = molecular target: H5 hemagglutinin (influenza A virus); assay: BLI, HA-5
H10 (Influenza A virus) [32] = assay: FACS, HA on mammalian cells; 2nd only 8.7
[33] = molecular target: H7 hemagglutinin (influenza A virus); assay: BLI, HA-7; given as kdis
[34] = molecular target: H5 hemagglutinin (influenza A virus); assay: BLI, HA-5 [Cont'd]
[35] = molecular target: H5 hemagglutinin (influenza A virus); assay: BLI, HA-5; given as kdis
[36] = molecular target: H7 hemagglutinin (influenza A virus); assay: BLI, HA-7 [Cont'd]
H14 (Influenza A virus) [37] = assay: flow cytometry, HA on mammalian cells; mock cells 1.12 [cont'd]
H16 (Influenza A virus) [38] = assay: as above
H17 (Influenza A virus) [39] = assay: as above
H18 (Influenza A virus) [40] = assay: as above
H15 (Influenza A virus) [41] = assay: as above
H11 (Influenza A virus) [42] = assay: flow cytometry, HA on mammalian cells; mock cells 1.12
H12 (Influenza A virus) [43] = assay: as above
H8 (Influenza A virus) [44] = assay: as above
H10 (Influenza A virus) [45] = assay: as above
H13 (Influenza A virus) [46] = assay: as above
H4 (Influenza A virus) [47] = assay: as above

B1: FHF11 (antibody, V domains shown)
VH: QVQLQQSGPGLVKPSQTLSVTCGISGDSVSSHSAAWNWIRQSPSRGLEWLGRTYYRSKWYNDYAVSVKSRITINPDTSKNQFSLQLISVTPEDTAVYYCARVGAMTFGLLTGGMDVWGQGTTVTVSS
VL: EIVLTQSPGTQSLSPGERATLSCRASQSLSRSYLAWYQQRPGKPPRLLIYGASSRATGIPDRFSGSGSGTDFSLTISSLEPEDSAMYFCQYYGDSPLFSFGPGTKVDIK
[1]
  Alexa 647-A+ (percent of cells) at 10 µg/ml: 90.7
[2]
  Alexa 647-A+ (percent of cells) at 0.4 µg/ml: 84.5
[3]
  Alexa 647-A+ (percent of cells) at 2 µg/ml: 89.2
H17 (Influenza A virus) [4]
  % cells binding to HA: 82%
H8 (Influenza A virus) [5]
  % cells binding to HA: 80%
H12 (Influenza A virus) [6]
  % cells binding to HA: 86%
H4 (Influenza A virus) [7]
  % cells binding to HA: 54%
H16 (Influenza A virus) [8]
  % cells binding to HA: 20%
H14 (Influenza A virus) [9]
  % cells binding to HA: 79%
H13 (Influenza A virus) [10]
  % cells binding to HA: 79%
H15 (Influenza A virus) [11]
  % cells binding to HA: 76%
[12]
  % cells binding to HA: 83%
H11 (Influenza A virus) [13]
  percent of cells in the gate: 42.7
H12 (Influenza A virus) [14]
  percent of cells in the gate: 79.1
H8 (Influenza A virus) [15]
  percent of cells in the gate: 89.2
H10 (Influenza A virus) [16]
  percent of cells in the gate: 89.7
H13 (Influenza A virus) [17]
  percent of cells in the gate: 75.8
H4 (Influenza A virus) [18]
  percent of cells in the gate: 40.6
H11 (Influenza A virus) [19]
  % cells binding to HA: 62%
[20]
  koff: < 1e-07 s⁻¹
[21]
  % cells binding to HA: 88%
[22]
  Kd: 2.03 nM
  kon: 24400 M⁻¹ s⁻¹
H18 (Influenza A virus) [23]
  % cells binding to HA: 80%
[24]
  Alexa 647-A+ (percent of cells) at 50 µg/ml: 90.7
[25]
  koff: 4.95e-05 s⁻¹
H14 (Influenza A virus) [26]
  percent of cells in the gate: 75.2
H16 (Influenza A virus) [27]
  percent of cells in the gate: 23.2
H17 (Influenza A virus) [28]
  percent of cells in the gate: 98.2
H18 (Influenza A virus) [29]
  percent of cells in the gate: 94.3
H15 (Influenza A virus) [30]
  percent of cells in the gate: 75.6
[31]
  Kd: < 0.001 nM
  kon: 19900 M⁻¹ s⁻¹
H10 (Influenza A virus) [32]
  % cells binding to HA: 82%

B2: FHF11v6 (antibody, V domains shown)
VH: QVQLQQSGPGLVKPSQTLSVTCGISGDSVSSHSAAWNWIRQSPSRGLEWLGRTYYRSGWYNDYAVSVKSRITINPDTSKNQFSLQLISVTPEDTAVYYCARVGAMTFGLLTGGMDVWGQGTTVTVSS
VL: EIVLTQSPGTQSLSPGERATLSCRASQSLSRSYLAWYQQRPGKPPRLLIYGASSRATGIPDRFSGSGSGTDFSLTISSLEPEDSAMYFCQYYGDSPLFSFGPGTKVDIK
[33]
  koff: 0.000169 s⁻¹
H17 (Influenza A virus) [4]
  % cells binding to HA: 82%
H8 (Influenza A virus) [5]
  % cells binding to HA: 77%
[34]
  Kd: < 0.001 nM
  kon: 13600 M⁻¹ s⁻¹
H12 (Influenza A virus) [6]
  % cells binding to HA: 87%
H4 (Influenza A virus) [7]
  % cells binding to HA: 49%
[35]
  koff: < 1e-07 s⁻¹
H16 (Influenza A virus) [8]
  % cells binding to HA: 11%
H14 (Influenza A virus) [9]
  % cells binding to HA: 70%
H13 (Influenza A virus) [10]
  % cells binding to HA: 69%
H15 (Influenza A virus) [11]
  % cells binding to HA: 75%
[12]
  % cells binding to HA: 82%
[36]
  Kd: 10.4 nM
  kon: 16400 M⁻¹ s⁻¹
H11 (Influenza A virus) [19]
  % cells binding to HA: 59%
[21]
  % cells binding to HA: 85%
H18 (Influenza A virus) [23]
  % cells binding to HA: 79%
H10 (Influenza A virus) [32]
  % cells binding to HA: 82%

B3: FHF11v9 (antibody, V domains shown)
VH: QVQLQQSGPGLVKPSQTLSVTCGISGDSVSSYSAAWNWIRQSPSRGLEWLGRTYYRSGWYNDYAVSVKSRITINPDTSKNQFSLQLISVTPEDTAVYYCARVGAMTFGLLTGGMDVWGQGTTVTVSS
VL: EIVLTQSPGTQSLSPGERATLSCRASQSLSRSYLAWYQQRPGKPPRLLIYGASSRATGIPDRFSGSGSGTDFSLTISSLEPEDSAMYFCQYYGDSPLFSFGPGTKVDIK
[33]
  koff: 0.000193 s⁻¹
H17 (Influenza A virus) [4]
  % cells binding to HA: 82%
H8 (Influenza A virus) [5]
  % cells binding to HA: 78%
[34]
  Kd: < 0.001 nM
  kon: 16200 M⁻¹ s⁻¹
H12 (Influenza A virus) [6]
  % cells binding to HA: 86%
H4 (Influenza A virus) [7]
  % cells binding to HA: 47%
[35]
  koff: < 1e-07 s⁻¹
H16 (Influenza A virus) [8]
  % cells binding to HA: 13%
H14 (Influenza A virus) [9]
  % cells binding to HA: 70%
H13 (Influenza A virus) [10]
  % cells binding to HA: 75%
H15 (Influenza A virus) [11]
  % cells binding to HA: 63%
[12]
  % cells binding to HA: 80%
[36]
  Kd: 9.76 nM
  kon: 19800 M⁻¹ s⁻¹
H11 (Influenza A virus) [19]
  % cells binding to HA: 59%
[21]
  % cells binding to HA: 85%
H18 (Influenza A virus) [23]
  % cells binding to HA: 78%
H10 (Influenza A virus) [32]
  % cells binding to HA: 79%

B4: FHF11v3 (antibody, V domains shown)
VH: QVQLQQSGPGLVKPSQTLSVTCGISGDSVSSYSAAWNWIRQSPSRGLEWLGRTYYRSKWYNDYAVSVKSRITINPDTSKNQFSLQLISVTPEDTAVYYCARVGAMTFGLLTGGMDVWGQGTTVTVSS
VL: EIVLTQSPGTQSLSPGERATLSCRASQSLSRSYLAWYQQRPGKPPRLLIYGASSRATGIPDRFSGSGSGTDFSLTISSLEPEDSAMYFCQYYGDSPLFSFGPGTKVDIK
H17 (Influenza A virus) [4]
  % cells binding to HA: 82%
H8 (Influenza A virus) [5]
  % cells binding to HA: 78%
H12 (Influenza A virus) [6]
  % cells binding to HA: 85%
H4 (Influenza A virus) [7]
  % cells binding to HA: 48%
H16 (Influenza A virus) [8]
  % cells binding to HA: 22%
H14 (Influenza A virus) [9]
  % cells binding to HA: 70%
H13 (Influenza A virus) [10]
  % cells binding to HA: 79%
H15 (Influenza A virus) [11]
  % cells binding to HA: 66%
[12]
  % cells binding to HA: 82%
H11 (Influenza A virus) [19]
  % cells binding to HA: 59%
[20]
  koff: < 1e-07 s⁻¹
[21]
  % cells binding to HA: 84%
[22]
  Kd: 5.11 nM
  kon: 23000 M⁻¹ s⁻¹
H18 (Influenza A virus) [23]
  % cells binding to HA: 79%
[25]
  koff: 0.000118 s⁻¹
[31]
  Kd: < 0.001 nM
  kon: 16400 M⁻¹ s⁻¹
H10 (Influenza A virus) [32]
  % cells binding to HA: 77%

B5: FHF12 (antibody, V domains shown)
VH: QVQLQQSGPGLVKPSQTLSVTCAISGDSVSSHSAAWNWIRQSPSRGLEWLGRTYYRSKWYNDYAVSVKSRITINPDTSKNQFSLQLVSVTPEDTAVYYCARVGAATFGILTGGMDVWGQGTTVTVSS
VL: EIVLTQSPGTQSLSPGDRATLSCRASQSLSRSYLAWYQQRPGKPPRLLIYGASSRATGIPDRFSGSGSGTDFSLTISSLEPEDSAMYFCQYYGDSPLFSFGPGTKVDIK
[1]
  Alexa 647-A+ (percent of cells) at 10 µg/ml: 90.6
[2]
  Alexa 647-A+ (percent of cells) at 0.4 µg/ml: 85.1
[3]
  Alexa 647-A+ (percent of cells) at 2 µg/ml: 90.5
H14 (Influenza A virus) [37]
  percent of cells in the gate: 80.4
H16 (Influenza A virus) [38]
  percent of cells in the gate: 25.7
H17 (Influenza A virus) [39]
  percent of cells in the gate: 98
H18 (Influenza A virus) [40]
  percent of cells in the gate: 94.8
H15 (Influenza A virus) [41]
  percent of cells in the gate: 77.2
H11 (Influenza A virus) [42]
  percent of cells in the gate: 37.8
H12 (Influenza A virus) [43]
  percent of cells in the gate: 75.3
H8 (Influenza A virus) [44]
  percent of cells in the gate: 89.6
H10 (Influenza A virus) [45]
  percent of cells in the gate: 88.5
H13 (Influenza A virus) [46]
  percent of cells in the gate: 79.2
H4 (Influenza A virus) [47]
  percent of cells in the gate: 72.2
